Read-outs that look alike come from different tables or passages of the source.
Experiments:
[1] = biological target: human COA6 isoform 3 (human); test: SEC
[2] = biological target: human COA6 isoform 3 (human); test: SEC; remark: listed apart in the source

Substance: human COA6 isoform 3 (natural protein)
- stoichiometry N [1]: 2
- stoichiometry N [2]: 2
